Measurements: patent US20070020227A1
Numbering of substitutions follows the chain as printed. One block for each molecule: values may come before it.

How the values were obtained:
Test in all cases: cell-based or functional assay
[1] = molecular target: human IL-28 receptor on 293 HEK cells (transfected IL-28 receptor alpha subunit with endogenous CRF2-4) (human)
[2] = molecular target: zcyto21 (SEQ ID NO:15) (human) (UniProt Q8IU54)
[3] = molecular target: T1, zcyto20 (human IL-28A) (human) (UniProt Q8IZJ0)
T1 sequence: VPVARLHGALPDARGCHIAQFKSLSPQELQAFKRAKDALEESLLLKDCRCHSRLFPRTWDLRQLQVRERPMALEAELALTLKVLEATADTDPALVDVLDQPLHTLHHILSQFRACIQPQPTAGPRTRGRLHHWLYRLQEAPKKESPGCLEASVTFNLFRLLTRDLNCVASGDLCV

[4] = molecular target: T2, zcyto24 (mouse IL-28, SEQ ID NO: 8) (mouse) (UniProt Q4VK74)
T2 sequence: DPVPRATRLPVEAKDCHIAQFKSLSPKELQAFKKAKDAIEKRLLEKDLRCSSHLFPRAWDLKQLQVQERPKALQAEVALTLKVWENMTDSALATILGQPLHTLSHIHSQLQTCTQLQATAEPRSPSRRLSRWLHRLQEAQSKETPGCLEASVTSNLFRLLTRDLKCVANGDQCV

Sequence of UniProt Q8IU54 (Q8IU54 other isoform, or with tags, fused parts or gaps): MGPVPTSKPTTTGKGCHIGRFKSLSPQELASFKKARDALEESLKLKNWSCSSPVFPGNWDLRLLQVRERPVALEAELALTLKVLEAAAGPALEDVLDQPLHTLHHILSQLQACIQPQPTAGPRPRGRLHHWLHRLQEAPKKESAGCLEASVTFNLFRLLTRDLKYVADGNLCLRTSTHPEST
Sequence of human IL-28 receptor on 293 HEK cells (transfected IL-28 receptor alpha subunit with endogenous CRF2-4) (human) (Q8IU57 whole entry, chain 1 of 2): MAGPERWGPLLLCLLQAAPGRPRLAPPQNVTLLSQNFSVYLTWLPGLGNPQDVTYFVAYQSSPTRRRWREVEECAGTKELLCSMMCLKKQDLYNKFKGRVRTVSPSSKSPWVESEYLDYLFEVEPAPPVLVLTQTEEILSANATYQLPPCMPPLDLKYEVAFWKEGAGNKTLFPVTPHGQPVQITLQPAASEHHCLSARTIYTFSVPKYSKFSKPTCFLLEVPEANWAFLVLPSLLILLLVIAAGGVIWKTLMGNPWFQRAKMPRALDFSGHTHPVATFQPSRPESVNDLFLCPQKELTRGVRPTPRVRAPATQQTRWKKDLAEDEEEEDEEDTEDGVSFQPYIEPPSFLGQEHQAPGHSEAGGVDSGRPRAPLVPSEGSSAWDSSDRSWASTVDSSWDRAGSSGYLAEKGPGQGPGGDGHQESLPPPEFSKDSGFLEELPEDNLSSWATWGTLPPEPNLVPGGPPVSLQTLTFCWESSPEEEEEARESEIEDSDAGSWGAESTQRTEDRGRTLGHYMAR
Sequence of human IL-28 receptor on 293 HEK cells (transfected IL-28 receptor alpha subunit with endogenous CRF2-4) (human) (Q08334 whole entry, chain 2 of 2, further chain): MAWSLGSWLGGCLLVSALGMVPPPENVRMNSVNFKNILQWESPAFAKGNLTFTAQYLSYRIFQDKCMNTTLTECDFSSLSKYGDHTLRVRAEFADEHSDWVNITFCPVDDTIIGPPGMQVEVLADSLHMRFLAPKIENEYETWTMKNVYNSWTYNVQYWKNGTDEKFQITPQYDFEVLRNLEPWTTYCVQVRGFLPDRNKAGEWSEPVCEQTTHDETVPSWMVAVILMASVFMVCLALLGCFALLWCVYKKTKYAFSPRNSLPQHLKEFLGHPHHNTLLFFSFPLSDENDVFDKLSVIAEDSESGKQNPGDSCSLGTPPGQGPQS

Molecule: human zcytor19-Fc/human CRF2-4-Fc heterodimer soluble receptor (Fc fusion)
Percent Inhibition of Ligand-induced ISRE Signaling by Soluble Receptors (10 ng/ml ligand, 10 micrograms/ml soluble receptor) [2]: 16%
Percent Inhibition of Ligand-induced ISRE Signaling by Soluble Receptors (10 ng/ml ligand, 10 micrograms/ml soluble receptor) [3]: 16%
Percent Inhibition of Ligand-induced ISRE Signaling by Soluble Receptors (10 ng/ml ligand, 10 micrograms/ml soluble receptor) [4]: 47%

Molecule: zcyto10 (ligand)
ISRE Signaling of Transfected 293 Cells (Fold Induction), ISRE-Luc./IL-28R, ligand 125 ng/ml (fold induction) [1]: 1

B1: murine zcytor19-Ig homodimer soluble receptor (Fc fusion, part only; not given: Ig portion, UniProt Q8CGK5 21-227, looked up, part only)
chain, part: RPRLAPPRNVTLFSQNFTVYLTWLPGLGSPPNVTYFVTYQSYIKTGWRPVEHCAGIKALVCPLMCLKKLNLYSKFKGRVQAASAHGRSPRVESRYLEYLFDVELAPPTLVLTQMEKILRVNATYQLPPCMPSLELKYQVEFWKEGLGSKTLFPDTPYGQPVQIPLQQGASRRHCLSARTVYTLIDIKYSQFSEPSCIFLEAPGDKRA
Percent Inhibition of Ligand-induced ISRE Signaling by Soluble Receptors (10 ng/ml ligand, 10 micrograms/ml soluble receptor) [2]: 103%
Percent Inhibition of Ligand-induced ISRE Signaling by Soluble Receptors (10 ng/ml ligand, 10 micrograms/ml soluble receptor) [3]: 91%
Percent Inhibition of Ligand-induced ISRE Signaling by Soluble Receptors (10 ng/ml ligand, 10 micrograms/ml soluble receptor) [4]: 89%

B2: IL-28B (SEQ ID NO: 6) (ligand)
chain: T1 sequence with H7R, R49K, H51R, M71V, V95G, F112L, Y135H
ISRE Signaling of Transfected 293 Cells (Fold Induction), ISRE-Luc./IL-28R, ligand 125 ng/ml (fold induction) [1]: 104

Other lines, results leading:

ISRE Signaling of Transfected 293 Cells (Fold Induction), ISRE-Luc./IL-28R, ligand 100 ng/ml (fold induction) [1]: 0.5
Molecule: huIL10 (from UniProt P22301 19-178) (ligand)

Percent Inhibition of Ligand-induced ISRE Signaling by Soluble Receptors (10 ng/ml ligand, 10 micrograms/ml soluble receptor) [2]: 79%
Percent Inhibition of Ligand-induced ISRE Signaling by Soluble Receptors (10 ng/ml ligand, 10 micrograms/ml soluble receptor) [3]: 80%
Percent Inhibition of Ligand-induced ISRE Signaling by Soluble Receptors (10 ng/ml ligand, 10 micrograms/ml soluble receptor) [4]: 82%
Molecule: human CRF2-4-Fc homodimer soluble receptor (Fc fusion)

Percent Inhibition of Ligand-induced ISRE Signaling by Soluble Receptors (10 ng/ml ligand, 10 micrograms/ml soluble receptor) [2]: 45%
Percent Inhibition of Ligand-induced ISRE Signaling by Soluble Receptors (10 ng/ml ligand, 10 micrograms/ml soluble receptor) [3]: 92%
Percent Inhibition of Ligand-induced ISRE Signaling by Soluble Receptors (10 ng/ml ligand, 10 micrograms/ml soluble receptor) [4]: 90%
B3: human zcytor19-Fc homodimer soluble receptor (Fc fusion, not shown: a dimerising Fc or GST)
chain: RPRLAPPQNVTLLSQNFSVYLTWLPGLGNPQDVTYFVAYQSSPTRRRWREVEECAGTKELLCSMMCLKKQDLYNKFKGRVRTVSPSSKSPWVESEYLDYLFEVEPAPPVLVLTQTEEILSANATYQLPPCMPPLDLKYEVAFWKEGAGNKTLFPVTPHGQPVQITLQPAASEHHCLSARTIYTFSVPKYSKFSKPTCFLLEVPEANWA
